For this test, the target named is T1, GST-SerRS fusion protein (full-length human SerRS) (human, UniProt P49591 1-514).
T1 construct: also called GST-tagged SerRS
The test can be described thus: pull-down; GST or GST-SerRS fusion proteins (full-length or domain fragments) incubated with recombinant His-tagged SIRT2 for two hours and pulled down on Glutathione-Sepharose 4B; 20 mM HEPES pH 7.9, 150 mM NaCl, 0.5 mM EDTA, 10% glycerol, 0.1% Triton X-100, 1 mM DTT; SIRT2 detected with anti-His6. Particulars: both partners purified.

T1 sequence (P49591 whole entry, the tested form may be a part): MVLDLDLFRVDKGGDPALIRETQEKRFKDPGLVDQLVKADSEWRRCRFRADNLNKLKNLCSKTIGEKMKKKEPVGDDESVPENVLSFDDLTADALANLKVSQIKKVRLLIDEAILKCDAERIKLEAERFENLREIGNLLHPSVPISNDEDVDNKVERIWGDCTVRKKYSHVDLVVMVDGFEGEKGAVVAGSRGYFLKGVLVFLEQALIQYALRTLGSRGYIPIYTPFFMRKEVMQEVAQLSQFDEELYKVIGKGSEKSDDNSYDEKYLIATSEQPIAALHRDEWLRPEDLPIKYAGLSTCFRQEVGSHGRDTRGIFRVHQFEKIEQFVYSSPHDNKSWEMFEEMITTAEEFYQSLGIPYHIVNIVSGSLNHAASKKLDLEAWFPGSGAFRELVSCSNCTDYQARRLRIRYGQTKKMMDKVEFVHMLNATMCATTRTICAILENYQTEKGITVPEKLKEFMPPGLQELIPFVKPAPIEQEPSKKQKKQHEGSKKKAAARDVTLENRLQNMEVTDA

B1: purified His-tagged human SIRT2 (enzyme, UniProt Q8IXJ6 1-389, looked up)
chain: MAEPDPSHPLETQAGKVQEAQDSDSDSEGGAAGGEADMDFLRNLFSQTLSLGSQKERLLDELTLEGVARYMQSERCRRVICLVGAGISTSAGIPDFRSPSTGLYDNLEKYHLPYPEAIFEISYFKKHPEPFFALAKELYPGQFKPTICHYFMRLLKDKGLLLRCYTQNIDTLERIAGLEQEDLVEAHGTFYTSHCVSASCRHEYPLSWMKEKIFSEVTPKCEDCQSLVKPDIVFFGESLPARFFSCMQSDFLKVDLLLVMGTSLQVQPFASLISKAPLSTPRLLINKEKAGQSDPFLGMIMGLGGGMDFDSKKAYRDVAWLGECDQGCLALAELLGWKKELEDLVRREHASIDAQSGAGVPNPSTSASPKKSPPPAKDEARTTEREKPQ
notes: The SIRT2 of the deacetylase assay is called only 'recombinant human SIRT2'; it may have come from the CycLex kit; also called recombinant SIRT2; His-tagged SIRT2; not shown: His tag, C-terminal, kept
With B1, the binding result is “binds”.

For the origin of these results see publication PMC4057782, “tRNA synthetase counteracts c-Myc to develop functional vasculature” (eLife, 2014).
